{"source": "patent US20090074766A1", "about": "“Methods of inhibiting HIV-2 infection” (priority 2007, published 2009)", "key": {"[1]": {"test": "Phase 1b clinical trial: pharmacokinetics (serum PRO 140 by ELISA)", "details": "non-compartmental analysis, HIV-infected subjects"}, "[2]": {"test_system": "CCR5 lymphocytes", "assay_type": "in vivo, human", "description": "Whole blood specimens were combined separately with the indicated phycoerythrin-labeled anti-CCR5 antibodies or with appropriate isotype-control antibodies. Erythocytes were lysed and leukocytes were stabilized using the ImmunoPrep Reagent System (Beckman Coulter), and the cells were analyzed on a TQ Prep™ flow cytometry workstation (Beckman Coulter). Data were expressed as the percent of CCR5 cells relative to all cells gated in the analysis.\nFor up to 60 days post-treatment, at the times indicated in FIG. 6, blood was collected and analyzed for CCR5 lymphocyte levels.\nBackground binding of isotype control antibodies was unchanged."}, "[3]": {"test_system": "primary R5 HIV-1 isolates", "test": "Whole virus replication (neutralization) assay in PBMC, p24 ELISA", "assay_type": "cell-based", "details": "variety of primary R5 strains (FIG. 1)", "description": "The data reflect the median values from 8 or more independent assays. The genetic subtypes of the viruses are indicated in parentheses.\nReplication of authentic HIV-1 is measured in activated peripheral blood mononuclear cells (PBMCs) using the monocyte/macrophage-tropic HIV-1 clone, JRFL (HIV-1JRFL), for these studies.\nPBMCs are isolated from 4 separate donors (Leukopacks) by centrifugation on a Ficoll gradient. CD8 cells are depleted using RosetteSep CD8 Depletion Cocktail (#15663, StemCell Research, Vancouver, BC). […]\nSerial dilutions of virus are tested in quadruplicate on activated PBMCs (1.4×10^5 PBMC/well). […] Virus titer is determined by the method of Reed and Muench (Table 11, see below). […]\nThe percent inhibition is derived as follows [1−(p24 levels in the presence of drug/p24 levels in the absence of drug)]×100. IC50 values are determined by fitting the inhibition data with a non-linear, four-parameter, variable slope equation (GraphPad Prism, ver. 4.02; GraphPad Software, San Diego, Calif.). […]\nSerial dilutions of virus are tested in quadruplicate on activated PBMCs (1.4×10^5 PBMC/well). […] Virus titer is determined by the method of Reed and Muench (Table 11)."}}, "note": "Read-outs that look alike come from different tables or passages of the source.", "data": [{"molecule": "PRO 140: humanized IgG4,κ anti-CCR5 monoclonal antibody, humanized version of murine mAb PA14 (antibody, chains of the INN, looked up, V domains shown) VH: EVQLVESGGGLVKPGGSLRLSCAASGYTFSNYWIGWVRQAPGKGLEWIGDIYPGGNYIRNNEKFKDKTTLSADTSKNTAYLQMNSLKTEDTAVYYCGSSFGSNYVFAWFTYWGQGTLVTVSS VL: DIVMTQSPLSLPVTPGEPASISCRSSQRLLSSYGHTYLHWYLQKPGQSPQLLIYEVSNRFSGVPDRFSGSGSGTDFTLKISRVEAEDVGVYYCSQSTHVPLTFGQGTKVEIK", "values": [{"measurement": "Terminal half life", "setting": "[1]", "result": "approximately 4 d"}, {"measurement": "time cells remain partially coated", "setting": "[2]; single 2 mg/kg dose", "result": "> 4", "unit": "weeks"}, {"measurement": "time cells remain partially coated", "setting": "[2]; single 5 mg/kg dose", "result": "> 60", "unit": "days"}, {"measurement": "IC90", "setting": "[3]", "result": "3 to 4", "unit": "µg/mL"}]}]}
